# Assay results taken from paper PMC3329556, “Insights into the Mechanism of Bovine CD38/NAD+Glycohydrolase from the X-Ray Structures of Its Michaelis Complex and Covalently-Trapped Intermediates” (PLoS ONE, 2012).
# Numbering of substitutions follows the chain as printed. Names and notes keep the numbering of the source.
# B1: bCD38 (bovine CD38/NAD+glycohydrolase) (Bos taurus) (protein)
# chain: YKWHYSGLNRWHGAGSTADFQKIIQERCDTYTQTIRPGSRSRNCQAIRQAFMSAFISKDPCKATKEDYNSLINLAPPTVPCGQQVFWSKTKELAHEYAKRRRLMTLEDTLLGYLADGLRWCGEPGSSDLNIWSCPDWRKDCRTNYLSVFWEVLSERFAESACNTVRVVLNGSLENAFDSMSIFGRVEAPNLRPQVELEAWLVHDTGKPPSDSCSGSSIRKLKSILDGRNVKFRCMDNLSRDQFLQRS
# notes: soluble ecto-domain residues 32-278 (first 31 residues removed), alpha-factor secretion signal, Pichia pastoris GS115 or X33, mono-N-glycosylated at Asn201, back-to-back homodimer in crystal
# B2: bCD38 (bovine CD38/NAD+glycohydrolase) (Bos taurus; K120A) (protein)
# chain: B1 chain with K89A
# notes: as for B1
# B3: bCD38 (bovine CD38/NAD+glycohydrolase) (Bos taurus; W168A) (protein)
# chain: B1 chain with W137A
# notes: as for B1
# B4: bCD38 (bovine CD38/NAD+glycohydrolase) (Bos taurus; S185A) (protein)
# chain: B1 chain with S154A
# notes: as for B1
# B5: bCD38 (bovine CD38/NAD+glycohydrolase) (Bos taurus; R216A) (protein)
# chain: B1 chain with R185A
# notes: as for B1
# B6: bCD38 (bovine CD38/NAD+glycohydrolase) (Bos taurus; E218Q) (protein)
# chain: B1 chain with E187Q
# notes: as for B1
# Substrate: NC(=O)c1ccc[n+]([C@@H]2O[C@H](COP(=O)(O)OP(=O)(O)OC[C@H]3O[C@@H](n4cnc5c(N)ncnc54)[C@H](O)[C@@H]3O)[C@@H](O)[C@H]2O)c1
# Assay: radiometric HPLC assay, initial rates, Michaelis-Menten fit
# Format: biochemical, Bos taurus
# Settings: 10 mM potassium phosphate pH 7.4, 37°C, 14C-labelled NAD+ tracer
# Excerpt: radiometric HPLC assay, initial rates, Michaelis-Menten fit on bCD38 (bovine CD38/NAD+glycohydrolase)
Protein,Km [µM],kcat [s⁻¹],kcat/Km [M⁻¹ s⁻¹]
B1,17.1 ± 0.3,57.9 ± 1.9,3.38e+06 ± 130000
B2,27.7 ± 3.4,47.1 ± 2.1,1.7e+06 ± 220000
B3,24.6 ± 4.2,19.6 ± 0.9,800000 ± 140000
B4,18.7 ± 2.8,38.2 ± 1.3,2.04e+06 ± 310000
B5,22.9 ± 3.4,25.4 ± 1.1,1.1e+06 ± 170000
B6,24.7 ± 5.7,0.03 ± 0.002,1210 ± 300
